The results in this text go back to paper PMC7898697.

Common to all, as to experiment: BLI
The target in assay [1] is triazole-linked ^triazole72Ub^ADPr, biotinylated (UniProt P0CG48).
The target of assay [2] is unmodified ubiquitin, biotinylated (biotin-Ub) (UniProt P0CG48).
The target in assay [3] is triazole-linked ^triazole42Ub^ADPr (4), biotinylated (UniProt P0CG48).
For assay [4], the target named is triazole-linked ^triazole42Ub^Pr (6), biotinylated (UniProt P0CG48).
For assay [5], the target named is triazole-linked ^triazole42Ub^me-ADPr (5), biotinylated (UniProt P0CG48).
Assay [6] deals with natively linked ^Arg42Ub^ADPr, biotinylated (UniProt P0CG48).

Usually Kd stands for the concentration at which binding is half-saturated. As to “DupA-H67A lacking the GST tag (from UniProt Q5ZTK7 1-301) (enzyme)”, the Kd in assay [1] is 9.3 µM; in assay [3] it was 2200 nM; in assay [5] it was 1200 nM. The fold reduction of affinity against 4 and 5 in assay [2] and in assay [4] was greater than 15 fold in each case.

In the case of “glutathione S-transferase (GST)-tagged DupA-H67A (from UniProt Q5ZTK7 1-301) (enzyme)”, the Kd in assay [2] came to 54.5 nM; in assay [6] it was 5.7 nM; in assay [3], 11.2 nM; in assay [5], 10.6 nM.
